The text below walks through data of patent US20240150440A1 (LUMEN BIOSCIENCE, published 2024).

A word on the Kd: it is the equilibrium constant for the complex coming apart. By IC50 is commonly meant the midpoint of a concentration-inhibition curve. As usually defined, the EC50 is the midpoint of the concentration-response curve. A lower EC50 goes with a more potent agent.

The target in assay [1] is T1, SARS-CoV-2 spike protein on pseudotyped lentivirus (Wuhan Reference Pseudovirus) (SARS-CoV-2, UniProt P0DTC2 14-1273). In words: cell-based or functional assay.
The target of assay [2] is T2, recombinant SARS-CoV-2 RBD with C-terminal AviTag (SARS-CoV-2, UniProt P0DTC2 319-541). In words: BLI, biotinylated RBD on streptavidin biosensors; BLD: below limit of detection. For orientation: Biolayer interferometry detects binding as a change in optical thickness at a sensor tip.
For assay [3], the target named is T1, SARS-CoV-2 spike protein on pseudotyped …. In words: cell-based or functional assay. The source holds these as a separate data set.
The target is the same in assay [4]. In words: cell-based or functional assay. The source holds these as a separate data set.
Assay [5] has as its target T2, recombinant SARS-CoV-2 RBD with …. In words: ELISA, competition with coated ACE2-Fc for RBD [Cont. 5].
Assay [6] shares this target. In words: BLI, biotinylated RBD on streptavidin biosensors, global 1:1 fit.
Assay [7] shares this target. In words: BLI, biotinylated RBD on streptavidin biosensors [Cont. 5].
For assay [8] the target is unchanged. In words: BLI, biotinylated RBD on streptavidin biosensors [Cont. 3].
Assay [9] has the same target. In words: BLI, biotinylated RBD on streptavidin biosensors; OR: over-range.
Assay [10] shares this target. In words: BLI, biotinylated RBD on streptavidin biosensors.
For assay [11] the target is unchanged. In words: ELISA, competition with coated human ACE2-FC for RBD-AviTag.
The target is the same in assay [12]. In words: ELISA, competition with coated ACE2-Fc for RBD. Background: An ELISA detects its analyte on a solid surface through an enzyme-linked reagent.
In assay [13] the target is T1, SARS-CoV-2 spike protein on pseudotyped …. In words: cell-based or functional assay. This is another data set of the same source.
The target of assay [14] is SARS-CoV-2 Gamma Variant spike protein on pseudotyped lentivirus (SARS-CoV-2 Gamma variant). In words: cell-based or functional assay.
Assay [15] has as its target T3, SARS-CoV-2 Alpha Variant RBD (SARS-CoV-2 Alpha variant).
T3 construct: domain: RBD; coated on ELISA plates
In words: ELISA, RBD coated.

The target in assay [16] is T4, SARS-CoV-2 Beta Variant RBD (SARS-CoV-2 Beta variant).
T4 construct: domain: RBD; coated on ELISA plates
In words: ELISA, RBD coated.

Assay [17] has as its target T5, SARS-CoV-2 Gamma Variant RBD (SARS-CoV-2 Gamma variant).
T5 construct: domain: RBD; coated on ELISA plates
In words: ELISA, RBD coated.

Assay [18] deals with T1, SARS-CoV-2 spike protein on pseudotyped …. In words: cell-based or functional assay. The source holds these as a separate data set.
The target in assay [19] is T2, recombinant SARS-CoV-2 RBD with …. In words: BLI, biotinylated RBD on streptavidin biosensors [Cont. 2].
The target is the same in assay [20]. In words: ELISA, competition with coated ACE2-Fc for RBD [Cont. 2].
Assay [21] shares this target. In words: BLI, biotinylated RBD on streptavidin biosensors [Cont. 1].
The target of assay [22] is T1, SARS-CoV-2 spike protein on pseudotyped …. In words: cell-based or functional assay. This is another data set of the same source.
Assay [23] addresses T2, recombinant SARS-CoV-2 RBD with …. In words: ELISA, competition with coated ACE2-Fc for RBD [Cont. 1].

B1: PP802 MBP-R2A-C5-H6 (VHH)
VHH: QVQLVESGGGLVQPGGSLRLSCAASGTWGNIQYLSWFRQAPGKRREFVAAITPNNGTNYADSVKGRFTISRDNAKNTVYLQMNSLKPEDTAVYYCTAVLWYTTKEGPYDYWGQGTQVTVSS
notes: Form: Monomer
For the molecule B1, the “infectivity % under 10 ug/mL VHH treatment” value (“infectivity %” for short) in assay [1] came to 87.8%. The Kd in assay [2] was roughly 23000 nM.

B2: MBP-5HVZ-R2A-C5-H6 (VHH, not shown: large carriers; small tags and cut ends)
VHH: B1 VHH
For the molecule B2, the dissociation constant Kd in assay [2] was roughly 3250 nM.

B3: PP1140 MBP-4B0F-PAPA-R5d-B6-H6 (VHH)
VHH: QVQLVESGGGLVQPGGSLRLSCAASGRILAANIVHWYRQAPGKEREGVAGITSGGGSYYADSVKGRFTISRDNAKNTVYLQMNSLKPEDTAVYYCNALGLGQSSLYRSADPYDSWGQGTQVTVSS
notes: Form: Heptamer
B3: the “Pseudovirus neutralization IC50” value in assay [3] was found to be 2.07 nM. Also, the “infectivity %” value in [1] was 2.47%. Besides, in [4], the “Pseudovirus inhibition IC50 [Cont. 5]” value was 7.04 nM.

B4: R5D-D4 (competition ELISA sample) (VHH)
VHH: QVQLVESGGGLVQPGGSLRLSCAASGSDFTINAMHWFRQAPGKQREFVATITSTSSTAYRDSVKGRFTISRDNAKNTVYLQMNSLKPEDTAVYYCAAFAVRDADTAGWTARDYWGQGTQVTVSS
Regarding B4, the IC50 in [5] was determined as 48.1 nM. The Kd in [6] and in assay [7] was 130 nM each time. Moreover, the “Pseudovirus inhibition IC50 [Cont. 5]” value in assay [4] came to 166 nM.

B5: PP826 MBP-R5C-A2-H6 (VHH)
VHH: QVQLVESGGGLVQPGGSLRLSCAASGDIFSKNAMHWVRQAPGKQREFVAGIYSDGSSLYADSVKGRFTISRDNAKNTVYLQMNSLKPEDTAVYYCAALDYSARYRTWGQGTQVTVSS
notes: Form: Monomer
For B5, the Kd in assay [8] was found to be 420 nM. Besides, the “infectivity %” value in assay [1] is 70.6%.

B6: PP846 MBP-R5D-G6-H6 (VHH)
VHH: QVQLVESGGGLVQPGGSLRLSCAASGRILAANIVHWYRQAPGKNREGVAGITSGGSTYYADSVKGRFTISRDNAKNTVYLQMNSLKPEDTAVYYCAAKPLGSPDDFDYWGQGTQVTVSS
notes: Form: Monomer
As for B6, the IC50 in assay [5] was determined as 7.5 nM. For the same molecule, the “infectivity %” value in assay [1] stood at 77.1%. For the same molecule, the Kd in assay [7] is 564 nM.

B7: PP803 MBP-R2A-F3-H6 (VHH)
VHH: QVQLVESGGGLVQPGGSLRLSCAASGSITSINWMHWFRQAPGKDREGVASISQTGRGSYADSVKGRFTISRDNAKNTVYLQMNSLKPEDTAVYYCAAASRTGTPYNYWGQGTQVTVSS
notes: Form: Monomer
Consider B7, for which, in assay [9], the Kd is roughly 1900 nM. The “infectivity %” value in assay [1] was found to be 70.7%.

B8: dimeric VHH (VHH-5HVZ-MBP) R2A-F3 (VHH)
VHH: B7 VHH
Regarding B8, the Kd was 5.7 nM in assay [6] and 5.66 nM in assay [10]. Also, the “IC50 (read off the curve)” value in assay [11] was roughly 2 nM. For the same molecule, the IC50 in assay [12] amounted to 1.6 nM. Besides, the “Pseudovirus inhibition IC50” value in assay [13] stood at 272 nM.

B9: PP1107 MBP-5HVZ-PAPA-RN-22-H6 (VHH)
VHH: QVQLVESGGGLVQPGGSLRLSCAASGSISEINLLHWFRQAPGKQREWVATMTSGGSTDYADSVKGRFTISRDNAKNTVYLQMNSLKPEDTAVYYCAADEFTKYGHGRYWGQGTQVTVSS
notes: Form: Dimer
With B9, the figures for the “Pseudovirus neutralization IC50” value in [14] and in assay [3] were 0.649 nM and 32.9 nM, respectively. In addition, the EC50 came to 0.28 nM in [15], 0.25 nM in [16] and 0.18 nM in assay [17]. Besides, the “infectivity %” value in [1] is 34.3%. Besides, in assay [18], the “Pseudovirus inhibition IC50 [Cont. 9]” value amounted to 110 nM.

B10: PP819 MBP-R5A-C5-H6 (VHH)
VHH: QVQLVESGGGLVQPGGSLRLSCAASGDIFSINALHWFRQAPGKQREEVAAITSGGSTGYADSVKGRFTISRDNAKNTVYLQMNSLKPEDTAVYYCAAQQARGGLDSDYWGQGTQVTVSS
notes: Form: Monomer
With B10, in assay [1], the “infectivity %” value worked out at 54.1%. Moreover, the Kd in [19] is 42.1 nM. Further, the IC50 in assay [20] amounted to 71.9 nM.

B11: dimeric VHH (VHH-5HVZ-MBP) R2C-G6 (VHH)
VHH: QVQLVESGGGLVQPGGSLRLSCAASGSIYKYSDVHWFRQAPGKAREAVALLTGAGTTIYGDSVKGRFTISRDNAKNTVYLQMNSLKPEDTAVYYCAAGQGFKATRTFDSWGQGTQVTVSS
B11: the Kd in assay [21] was 35.7 nM. Besides, in assay [22], the “Pseudovirus inhibition IC50 [Cont. 1]” value was found to be 134 nM. Also, the IC50 in assay [23] was 3.9 nM.

B12: PP822 MBP-R5A-E5-H6 (VHH)
VHH: QVQLVESGGGLVQPGGSLRLSCAASGYDFDILRMAWFRQAPGKEREMVAAITSAESVNYEDSVKGRFTISRDNAKNTVYLQMNSLKPEDTAVYYCATYDYTDDYGYASWGQGTQVTVSS
notes: Form: Monomer
On to B12, for which, in assay [1], the “infectivity %” value is 71.6%. Moreover, in [19], the Kd stood at 6.97 nM. In assay [20], the IC50 worked out at 183 nM.

B13: PP1113 MBP-5HVZ-PAPA-RN-29-H6 (VHH)
VHH: QVQLVESGGGLVQPGGSLRLSCAASGYILSENLTAWFRQAPGKAREVVATVTSGDYTNYDDSVKGRFTISRDNAKNTVYLQMNSLKPEDTAVYYCAAGTSDWEVKWSHWGQGTQVTVSS
notes: Form: Dimer
Turning to B13, the “Pseudovirus neutralization IC50” value in assay [3] worked out at 7.09 nM. Moreover, the results for the half-maximal effective concentration (EC50) in assay [15], in assay [16] and in assay [17] were 0.72 nM, 5.64 nM and 3.37 nM, respectively. Besides, the “infectivity %” value in assay [1] came to 6.25%. Also, the “Pseudovirus inhibition IC50 [Cont. 9]” value in assay [18] stood at 9.38 nM.

B14: PP813 MBP-R2E-D2-H6 (VHH)
VHH: QVQLVESGGGLVQPGGSLRLSCAASGHQLSTNATHWFRQAPGKNREFVASIGSGSSSYYADSVKGRFTISRDNAKNTVYLQMNSLKPEDTAVYYCTALGGDELDGMTYDYWGQGTQVTVSS
notes: Form: Monomer
Take B14: the “infectivity %” value in assay [1] came out at 75.5%. The Kd in assay [21] amounted to 100 nM.

B15: PP807 MBP-R2C-B3-H6 (VHH)
VHH: QVQLVESGGGLVQPGGSLRLSCAASGTYASYETIAWYRQAPGKQREKVARITGAGSSFYADSVKGRFTISRDNAKNTVYLQMNSLKPEDTAVYYCNADSIPPALRAANTGYWGQGTQVTVSS
notes: Form: Monomer
With B15, in [9], the Kd was roughly 950 nM. Besides, in [1], the “infectivity %” value was 75.3%. Further, the IC50 in assay [12] was 148 nM.
